Experimental data from publication PMC3143821 (Molecular cell, 2011).

These binders were tested against human Dicer (human, UniProt Q9UPY3 1-1922) (assay: in vitro reconstitution of the complex).
Chain of human Dicer (Q9UPY3 whole entry): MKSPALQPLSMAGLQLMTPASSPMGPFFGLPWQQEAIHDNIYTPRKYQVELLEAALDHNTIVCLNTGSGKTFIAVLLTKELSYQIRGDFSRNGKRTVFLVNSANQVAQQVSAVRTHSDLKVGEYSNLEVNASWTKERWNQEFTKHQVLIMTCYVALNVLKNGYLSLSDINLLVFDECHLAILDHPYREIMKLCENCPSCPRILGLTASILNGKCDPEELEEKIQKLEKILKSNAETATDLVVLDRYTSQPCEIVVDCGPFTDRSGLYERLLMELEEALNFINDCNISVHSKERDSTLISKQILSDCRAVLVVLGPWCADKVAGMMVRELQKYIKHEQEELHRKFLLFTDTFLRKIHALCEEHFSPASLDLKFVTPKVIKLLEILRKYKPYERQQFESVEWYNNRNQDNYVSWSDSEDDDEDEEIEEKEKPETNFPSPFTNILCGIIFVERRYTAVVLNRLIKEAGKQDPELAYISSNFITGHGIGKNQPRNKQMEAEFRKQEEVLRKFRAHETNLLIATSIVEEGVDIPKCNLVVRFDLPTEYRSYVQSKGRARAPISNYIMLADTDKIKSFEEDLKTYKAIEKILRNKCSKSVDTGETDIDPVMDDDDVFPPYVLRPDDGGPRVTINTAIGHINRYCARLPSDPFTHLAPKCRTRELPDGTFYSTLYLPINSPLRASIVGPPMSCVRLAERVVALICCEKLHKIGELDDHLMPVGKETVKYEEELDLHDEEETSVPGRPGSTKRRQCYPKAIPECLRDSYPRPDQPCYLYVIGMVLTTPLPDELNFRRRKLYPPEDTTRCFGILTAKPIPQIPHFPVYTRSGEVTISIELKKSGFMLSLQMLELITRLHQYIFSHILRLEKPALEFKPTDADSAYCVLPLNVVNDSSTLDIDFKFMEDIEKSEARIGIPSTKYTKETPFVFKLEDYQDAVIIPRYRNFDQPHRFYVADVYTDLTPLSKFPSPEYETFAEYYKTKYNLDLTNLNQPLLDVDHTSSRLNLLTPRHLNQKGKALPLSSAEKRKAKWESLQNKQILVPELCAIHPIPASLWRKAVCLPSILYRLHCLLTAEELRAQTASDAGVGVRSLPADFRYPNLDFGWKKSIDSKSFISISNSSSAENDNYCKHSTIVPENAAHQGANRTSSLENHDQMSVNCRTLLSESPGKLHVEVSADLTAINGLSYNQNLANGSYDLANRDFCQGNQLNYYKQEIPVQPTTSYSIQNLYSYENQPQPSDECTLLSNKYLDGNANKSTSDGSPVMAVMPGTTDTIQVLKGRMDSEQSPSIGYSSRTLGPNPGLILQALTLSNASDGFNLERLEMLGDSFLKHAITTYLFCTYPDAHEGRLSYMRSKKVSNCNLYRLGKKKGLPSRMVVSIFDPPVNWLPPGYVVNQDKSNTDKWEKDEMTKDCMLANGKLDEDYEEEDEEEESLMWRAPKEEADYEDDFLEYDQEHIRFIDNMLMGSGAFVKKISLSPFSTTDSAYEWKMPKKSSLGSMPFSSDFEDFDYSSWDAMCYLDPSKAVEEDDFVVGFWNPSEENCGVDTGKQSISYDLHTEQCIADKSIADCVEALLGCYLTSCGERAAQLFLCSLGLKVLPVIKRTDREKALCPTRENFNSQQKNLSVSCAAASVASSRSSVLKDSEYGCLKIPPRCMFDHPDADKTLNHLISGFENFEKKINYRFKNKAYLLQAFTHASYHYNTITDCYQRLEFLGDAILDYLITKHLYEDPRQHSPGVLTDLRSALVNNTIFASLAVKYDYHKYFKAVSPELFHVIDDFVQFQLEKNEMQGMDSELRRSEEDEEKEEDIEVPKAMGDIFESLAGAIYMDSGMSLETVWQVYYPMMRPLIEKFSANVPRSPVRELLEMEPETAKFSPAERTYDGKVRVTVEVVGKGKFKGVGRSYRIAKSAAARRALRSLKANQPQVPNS

binding result | Binder
binds | PACT (natural protein, human, UniProt O75569 1-313, looked up) MSQSRHRAEAPPLEREDSGTFSLGKMITAKPGKTPIQVLHEYGMKTKNIPVYECERSDVQIHVPTFTFRVTVGDITCTGEGTSKKLAKHRAAEAAINILKANASICFAVPDPLMPDPSKQPKNQLNPIGSLQELAIHHGWRLPEYTLSQEGGPAHKREYTTICRLESFMETGKGASKKQAKRNAAEKFLAKFSNISPENHISLTNVVGHSLGCTWHSLRNSPGEKINLLKRSLLSIPNTDYIQLLSEIAKEQGFNITYLDIDELSANGQYQCLAELSTSPITVCHGSGISCGNAQSDAAHNALQYLKIIAERK
binds | Argonaute2 (Ago2) (enzyme) not shown
binds | TRBP (natural protein, human, UniProt Q15633 1-366, looked up) MSEEEQGSGTTTGCGLPSIEQMLAANPGKTPISLLQEYGTRIGKTPVYDLLKAEGQAHQPNFTFRVTVGDTSCTGQGPSKKAAKHKAAEVALKHLKGGSMLEPALEDSSSFSPLDSSLPEDIPVFTAAAAATPVPSVVLTRSPPMELQPPVSPQQSECNPVGALQELVVQKGWRLPEYTVTQESGPAHRKEFTMTCRVERFIEIGSGTSKKLAKRNAAAKMLLRVHTVPLDARDGNEVEPDDDHFSIGVGSRLDGLRNRGPGCTWDSLRNSVGEKILSLRSCSLGSLGALGPACCRVLSELSEEQAFHVSYLDIEELSLSGLCQCLVELSTQPATVCHGSATTREAARGEAARRALQYLKIMAGSK
